The data set deals with wild-type DNA polymerase beta (human). The experiment in a line: EMSA. The settings on record: 10 nM DNA, 5 mM MgCl2; approximately 50% of DNA bound at 32 nM enzyme; EMSA: 50 mM Tris-HCl pH 7.5, 100 mM KCl, 5 mM MgCl2, 1 mM DTT, 10% glycerol, 100 ug/ml BSA, room temperature 5 min; 10% native PAGE at 4 C.

As for 1-nt gapped 34-bp DNA, the K half is 32 nM.

Values taken from publication PMC6616571.
